Here are results for ten molecules from patent US20250241939A1, “NUCLEIC ACID-BASED DELIVERY SYSTEMS AND USES THEREOF” (Kodikaz Therapeutic Solutions, Inc., priority 2022, published 2025).

This series deals with MIA (pancreatic cancer) cell genome. The series can be described thus: ctDNA coculture with MIA cells, whole genome sequencing: genomic insertion sites, transposons at insertion points and SNVs (pancreatic cancer). The conditions noted are these: for blast orientation / blast chr / Transposon orientation / Distance from insertion / Location relative to insertion: TABLE 8, pancreatic cancer co-culture; for blast orientation: BLAST alignment orientation; for blast chr: chromosome with the longest result for BLAST analysis of the full contig; for Transposon orientation: compared with the human reference genome; for Distance from insertion: distance between insertion and the transposon (0 if they overlap); for Location relative to insertion: location of the transposon relative to the insertion on the contig; for Location / No. SNP / Chr location / Gene: TABLE 4; for Location: identified genomic insertion site, chromosome; for No. SNP: number of single nucleotide variants (SNVs or SNPs) identified, polynucleotides for pancreatic cancer cells; for Chr location: position on the chromosome of the identified genomic insertion site; for Gene: gene at identified genomic insertion site. It is filed as cell-based, human. The procedure:
The integration of ctDNAs into the host cell genome was evaluated. ctDNA was extracted from patient plasma, cultured for 24 hours with cells of a matching cancer cell type or non-matching cancer cell type, and whole genome sequencing was performed. The cell lines used were MM1s (multiple myeloma, MM) and MIA (pancreatic cancer, PC).
The sequence data was used to reconstruct genomic contigs for each experimental condition by de novo assembly. […] Coculture contigs carrying a ctDNA insertion were identified using NucDiff analysis.
Experiments were designed to identify the presence of transposons in ctDNA fragments. To map ctDNA genomic junctions more precisely, a PACBIO probe was ligated to multiple myeloma and pancreatic cancer ctDNA samples to label their 5′ and 3′ ends. Whole-genome sequencing of DNA from cells with ctDNA genomic integration was done using the Illumina platform. De novo assembly was performed on the sequencing output. ctDNA contigs containing PACBIO adaptor were then matched to those contigs containing inserted ctDNA sequences identified in the coculture experiments. Transposable element on ctDNA sequences at the insertion points (<100 nucleotides from transition point between cell and ctDNA) were detected and classified using RepeatMaster.
A search was conducted for transposons that preferentially target cells of matching tumor types. The lists of transposons identified at the ctDNA insertion point in matching and mismatched coculture conditions were compared (e.g., MM ctDNA with MM cells or PC cells). Transposons were selected that were uniquely or preferentially inserted in the matching conditions.
Whole-genome sequencing and Whole exon sequencing: ctDNA was extracted from 10 MM and 10 PC patients. DNA from CD138 (+) cells and from cell lines used in in vitro experiments (MM1s and MIA) was extracted using Blood & Cell Culture DNA Mini Kit (Quiagen, MD). DNA from […] paraffin embedded pancreatic tumors was obtained using QIAamp DNA FFPE Tissue Kit Print (Qiagen, MD).
After extraction, ctDNA was ligated to the PACBIO adaptor ([…]) using the ABM DNA Library Prep Kit for Illumina Sequencing (Applied Biological Materials Inc. Canada). PACBio-labeled ctDNA and regular ctDNA were subjected to standard methods for library preparation and sequencing using Illumina and Agilent protocols, respectively. Applied Biological Materials Inc. prepared the libraries and performed whole-exon and -genome sequencing.
Identification of transposable elements and its nucleotide variants: To determine the locations of transposable-like regions in contigs, sequences were analyzed and transposable elements (TEs) were identified and classified using RepeatMasker version 4.1.0 and the Dfam database (release 3.1) of repetitive DNA families was used as a reference for identifying repeats in ctDNA contig sequences that were part of qualifying structural events. For each repeat sequence identified by RepeatMasker, the overall frequency of the specific repeat (e.g., for AluSp or L1) and their parent class (e.g., SINE) was computed.
Once the TE elements were identified, hit repeats/TE sequences, unique contigs for all samples, and insertion sequence were aligned with MAFFT software version. Mutations in TE sequences were identified by comparison of nucleotides at each position in the multiple sequence alignment with the “Biostrings” R package (version 4.1). A position was considered to contain mutation if the substitution was present in contigs of all samples.

For the molecule L1ME4b, the blast orientation entry is recorded as “Plus/Plus”, the blast chr result is “chr7”, the Transposon orientation entry is recorded as “direct” and the Distance from insertion entry is recorded as “+1930”. The “Location relative to insertion” value was “right”.

Turning to Mam_R4, the blast orientation result is recorded as “Plus/Plus”, the blast chr entry is reported as “chr9”, the Transposon orientation entry was “direct” and the Distance from insertion was determined as 0. The “Location relative to insertion” value is “intersect”.

B1: 39 (nucleic acid, listed as Homo sapiens)
chain: GTATTTAGATTCCCAGACTTTGGAGCCAGATCGGCTGAGTTCAAACCCTGTCTGTGCAACTATCAGCTGTTCAGCTGTGTGACCTTGGGCAAGTTACTTAACCTCTCTGAACCCTGATTCCTCCTGCAAACGGTGGGAAAAATAATAGAACCAATCTCTCTGGGTTGCTGTAAGGATTAAATTAATTTACAGTGCATGTAACATGCTTACAGCAATGTCTGGCACACAGTAAGCACTAAGTATTTGTTGTTATTTGTCATC
In the case of B1, the Location entry is recorded as “Chr 2”, the “No. SNP” value is given as 1 and the Chr location came out at 27942978.

B2: 46 (nucleic acid, listed as Homo sapiens)
chain: CACCCAAGTCACCTCTTGAATGCTTTGCTGCTTAGACATTTCTTCTGCCAGATACCCTAAATAATCTCTCTCAAGTTCAAAGTTCCACAAATCTCTAGGGCAGGGGCAAAATGCCACCAGTCTGTTTGCTAAAACATAACAAGAGTCATCTTTGCTCCAGTTCCCAACAAATTCCTTATCTCCATCTGAGACCACCTTATCCTGGATTTCATTGTCCATATCATTATCAGCATTTTGGTCAAAGCCACTCCACAAGTCCCTAGGAAGTTCCAAACTTTCCCACATTTTCCTGTCTTCTTCTGAGGCCTCCAACCTATTCCACCCTCTGTCTGTTACCCAGTTCCAAAGTTGCTTCTACATTTTCAGGTGTCTTTTCAGCAGTGCCACACTCTACTGGTACTAATTTAC
With B2, the Location result is reported as “Chr 5”, the “No. SNP” value was found to be 2 and the Chr location worked out at 107782747.

B3: 35 (nucleic acid, listed as Homo sapiens)
chain: AAGATGGGGAGGATGGTGGTGGAGCAGGCTGGGGAGATGAGGAGCTTGAGGGGCCTAGGAGCTAACCACCCATTCACTGTTTATGGGTGGGGTGGCTCCGGGCAGGTGGCCTGACCCCTCTAAACCTCAGTTTCCCCATCTGTAAAATGGGAGTAATTGTACCTGCCTCACGGGCATGTAGCAGGTGGGAGAGAGAGTAATACGGGCAAGACGTCTAGTGCAGTGGCTGGAACATAACAAGCACCCAGCAAGTGGTGGCCCCATTGCT
For B3, the Location entry was “Chr14” and the “No. SNP” value came to 0.

B4: 47 (nucleic acid, listed as Homo sapiens)
chain: AGGCCTGGCACAGTGGCTCATGCGTGTAATCCCAACACTGCGGGAAGCTGAGGCAGGAGGATCACTTGAGCCCAGGAGCTCATGGCTGTAGTGAGCTGTGATTGCACCACTGCACTGCACTCCAGCCTGGGCAACAGCAAGACCCTGTCTCCAAAAAAAAAAAACAAAACAAATTAAT
For the molecule B4, the Gene entry is on record as “LINE1/Alu”, the Location entry is on record as “Chr 10”, the “No. SNP” value is listed as 4 and the Chr location came out at 14247220.

B5: 30 (nucleic acid, listed as Homo sapiens)
chain: AATATTAATTTGGGCTCTCCAGAGAAACAGAACCAATAGATTACACATAGATATATAGAAAGACAGTTATTACAAGGAATTGGCTCACAGGATTATGTAGGCTGAGAAGTCCCATGACCTGCCGTCTGCAAGCTGGAGACCCAGGAAAGCCGGTGGTGTAGTTCCAGTCCGAGTTGGGAGGTCTGAGAATCGGGAGAGCTGACAGAGTAAGCTCTAGTTGCAGCCTGGAGTCCAGAGGGCAAAGAACACCTATGTCCCATCTCAAGCACGGTCAGGCGTCCCAGCTCAAGCAGAGAGAAAGAAGACTTTCCTGCTCAGCCTCCTTGCTCTAAGCAGCCTCCCGACGGATTGGATGAAGCTCACCCACGCTGGGGAGGGCAGCCACCTTCACTCAGTCCACCAATTCAAATGCTAATCTCATCCAGAAACACCCTCACAGGCACACCCAGAAATAATGTTTAGCCACATATCTGGGCATCCTGAGGACCAGTCAAATTGACTCATAAGTCTCACCATCATA
In the case of B5, the Gene result is on record as “RAB7A”, the Location result was “Chr3” and the “No. SNP” value is listed as 1.

B6: 41 (nucleic acid, listed as Homo sapiens)
chain: CCCTTGAACTTATTAAAATCTTTTATAATGTAGTACATTTACTGACTGCTTTCAGGCAGGCATGAGGACCTTTCACTCCATTTGCTCCATTGTCCCTTTTGAAGGATTCTTGTCATATATATAAAACCTCTTAAGACATAATGTTATTGTTTTATATACTCTTTAATCACCTACATCTTTGCACTTTAATATTTCCTAAATTTGCATTCTTCTCTCTGGGACTAGAAGACCTCAGCTTAGCGGTTCTTTTCATGTGGGCCTGAGAAATTTTCTCACTTTTTGTTTCACTTTCATTCTTGAAGGAACGTTTCACTGGTTATAGGATGCAAGGTTAGCGGTTATTCTCTTCTGCATCTTCCCACTGCATTGTCTTCTGAATCTTATAATTTATGTAAAAACATTAGTTGTCTGTCTTCCCATTGCTTCTGTGAAAATAATGCATGTTTTCCTCTGGTTGTTTTTGACATTTTCTTTGTGTCTGTTTCTCAGCAATTTTTCCATGATATATGCTCGGAGCGGGCTTACTTATCCTACACCCTGAATCTGTAGCTTGACGTCTTTTTGTCAACTTTGGAAAGTTTTTGGCATTATCTCATCAAATATTTCCCCTGTCCTGTTCTTGCTCTTCTCTTGCTGGAGTGCAGTCGTTCCTGTATTAGACCTTTGCATCATGTTCTAGGTATTTTTATCT
As to B6, the Gene result is given as “GRB10”, the Location entry is given as “Chr 7”, the “No. SNP” value is given as 1 and the Chr location was found to be 50660129.

B7: 33 (nucleic acid, listed as Homo sapiens)
chain: TGTGTTAGTCAGGATAGGCTAACCTCTGTAACACACAACCCCAATTTTTCAGTGGCTCAGAACAATAGGAGTTTCTTTCTTACTCATGTAAAGTCCAGGTGTGGCAGAAACTTGCGGGGGAGAAAGTCTACTCCACAGCATCACTCAGGGACCCAGGCTCCTGCCTTACGGTGGTTCCGCCATTTTCCAGGGCCTCGGAGTCCTCCATCCCATCTCCTCCATTCAGCTGGTGGATGTGGGAGGAGAGCGTGTATGAAAGACCACACAGAAGCTTTTTTTGGGCCAGGCTTTGAGACGGCGCACATCAGTTTCGCTCTTGTTGCCCAGGCTGGAGTGCAATGGCGCAATCTCGGCTCACCGCAAAAGACACTGGGAAATTTGGTCTGGCCATGTGTCTAGGAAGCAGAGGAGATGGGGTTTCATAAACTCCTGAACTCTCTCTACCACG
Regarding B7, the Location result is recorded as “Chr21” and the “No. SNP” value is on record as 4.

B8: 32 (nucleic acid, listed as Homo sapiens)
chain: CTCCATGTTCTGACCTCAGGTGATCTGCCCGCCTCCGCCTCCCATAAGTTCCTTCTGCACCTATTCCATTCCATCTGCAATGTCATCCTGGCCAACCTGTGAATGGGTATAGCAGGATAGTAAGTTAGTCCCAGTGTTTAGGCAGACTCCATAGACCAGATTTAACGTGTTTGTATAAACCGCATGGCTCGCTCTTACTCAGCCTTCGGGTCGGCCTTAAGATACACAGTTTTAAGAAAAGCATTGTCTTCACTCTTAGTGTAGATCAGGTCCTCCTCNCCCCCANCACGTTATGTCCCTGTCATTGAACATTATACTTTTATGAAGAATTGTGAGCTGTCTGAGATTTTACCTTACTTGCAAACTAACAAGTGGGCCTGCCATAGTTTCATGTCTGGCAGAAGACTCCAACAGGTCAGAGATTTTCATCTGTCTTGTTCACTATTGTCTACATAGTGCCTGGAAAAATGCCTGGCACACAGTAAACCCTCAATCAGTATTTTATGAATGAGTGAAC
modifications: misc_difference 279 a, c, t, g, unknown or other; misc_difference 286 a, c, t, g, unknown or other
Regarding B8, the Location result is on record as “Chr21” and the “No. SNP” value was 5.
